The record followed here is US20250188136A1, “AV3 MUTANT POLYPEPTIDES FOR PEST CONTROL” (Vestaron Corporation, priority 2021, published 2025).

Data set [1] in a line: Stability of purified peptide spiked into Av3b fermentation beer (rpHPLC). It is filed as physicochemical. On the procedure:
To determine the stability of the new mutants, Av3bM19, Av3bM23, Av3bM24, Av3bM25, Av3bM27, and Av3bM28 were purified and incubated in Av3b fermentation beer. The mutants were purified by cation-exchange chromatography using a GE SP-Sephadex C-25 column. The column was first calibrated with 30 mM sodium citrate buffer at pH 3.0. Then, the culture supernatant containing the secreted mutant peptide was loaded into the column to let the mutant peptide bind to the resin. The column was then washed with 30 mM sodium citrate buffer, pH 3.0, followed by washing with 30 mM sodium acetate, pH 4.0. Next, the bound mutant peptide was eluted by 1 M or 2 M NaCl with 30 mM sodium acetate, pH 4.0. The elution was then concentrated and buffer-exchanged to 30 mM sodium acetate, pH 4.0 using a 1 kD cutoff spin concentrator.
After purification, each of the mutants, Av3bM19, Av3bM23, Av3bM24, Av3bM25, Av3bM27, and Av3bM28, were evaluated for stability by spiking them into Av3b strain fermentation beer at pH 6.5. As a negative control, Av3b was evaluated in a pH 4.0 buffer. As a positive control, purified Av3b was evaluated by spiking into the same Av3b fermentation beer at pH 6.5. All stability experiments were performed at room temperature. […] The amount of peptide remaining relative to the beginning was determined by normalizing the peak area at different time to the one at 0 hour for each treatment. The degradation trend is visualized by the bar graph of the relative remaining peptide amount trend.

The test system of a further data set is Helicoverpa zea. The experiment in a line: Lepidoptera injection assay, corn earworm (CEW). It is filed as in vivo. On the procedure:
(§1) An injection assay was performed on Helicoverpa zea (corn earworm or “CEW”) and Spodoptera frugiperda (fall armyworm or “FAW”). Injections comprised a given Av3b mutant peptide combined with water to arrive at the planned dose. The Av3b mutants included Av3bM24; Av3bM165; Av3bM103; and Av3bM170. Av3b was used as a control.
(§2) Insects were reared on an artificial diet prepared from General Purpose Lepidoptera diet (Frontier Scientific, Newark, DE 19713, product No. F9772) according to the manufacturer's instructions. To perform the insect injection bioassay, 5 mL of hot diet was dispensed into the well of a rearing tray (Bio-Service Inc., Bio-RT-32), with 8 wells per injection treatment. The hot diet was then allowed to cool and solidify. Next, third instar larva were incubated on ice in order to immobilize them. Injections were prepared on a hand-microapplicator with injection solution (>100 μL) in 1-cc all-glass syringe having a 30 gauge straight needle. Air bubbles were removed from the syringe, and the syringe was set it up on the microapplicator. Injection volume was adjusted in the microapplicator at 2 μL.
(§3) To inject the larva, the insects were picked up and positioned close to the injection needle. The needle was allowed to penetrate the cuticle of the third pro-leg of the larva. The injection knob of the microapplicator was then rotated to inject a 2 μL solution into hemolymph from the third pro-leg. After injection the larva maintained on the needle for a few seconds to make sure the injected solution was absorbed. Then, the larva were gently removed from the needle and placed into the wells of prepared tray, along with 5 mL of solidified diet per well. Finally, the tray was sealed with vent covers.
(§4) Injected larva were incubated at 28° C. in an insect incubator, and scored at 24-hours post-injection based on their condition. Insect conditions were categorized as follows: alive (walking, eating, normal behavior); affected (showing toxic symptoms, such as tremors, writhing, unbalanced gait, or a combination thereof), knockdown (paralyzed albeit able to move with gentle poke); and dead (unmoving, discoloration, or a combination thereof).

In another data set the test system is Spodoptera frugiperda. The experiment in a line: Lepidoptera injection assay, fall armyworm (FAW). Conditions: third instar larva, 2 μL injection, scored at 24-hours post-injection. The format is in vivo. As to the method:
as §1, §2, §3, §4

Data set [2] in a line: Circular dichroism assay, melting temperature. The note with it: 10 mM Na3PO4 solution, pH 5.9; 20° C. to 98° C. It is filed as physicochemical. On the procedure:
A JASCO J-1500 CD spectrometer (JASCO, 28600 Mary's Court, Easton, MD 21601 USA) was used to measure the CD spectrum and the secondary structure information of the Av3bM24, Av3bM165, Av3bM103, and Av3bM170 peptides (with Av3b as a comparator). The peptides were prepared in 10 mM Na3PO4 solution, pH 5.9, and loaded into the cuvette for CD spectrum measurement. Measurements were processed with a light wavelength scan ranging from 180 nm to 250 nm, with a 1 nm interval; the temperature graduate changed from 20° C. to 98° C., with 2° C. interval.

A short description of data set [3]: Thermo-stability at 54° C. in pH 4.0 solution. The format is physicochemical. As to the method:
A thermo-stability study was performed for Av3b, Av3bM24, Av3bM165, Av3bM103, and Av3bM170 in a pH 4.0 solution at 54° C. for 0, 3, 7, 10, 12, and 14 days, with a caffeine internal control to cancel variation from evaporation. Samples of 1 mL were prepared in 1.5 mL microtube with sodium acetate buffer (NaOAc) at pH 4.0, containing 0.1 μg/μL of peptide, and 0.025 μg/μL of caffeine. The samples were incubated at 54° C. in a dry mixer. At 0, 3, 7, 10, 12, and 14 days, 20 μL of each sample was analyzed via analytic rpHPLC system to evaluate peptide loss. Each sample contained a fixed amount caffeine, which was used to compensate the peptide HPLC UV absorbance peak change due to volume change by evaporation. FIG. 68.

A short description of data set [4]: Stability of Av3b mutants in insect gut extract. The format is in vitro ADME, Helicoverpa zea. Conditions: H. zea gut extract digestion, room temperature. As to the method: To test the stability of the Av3b mutants in the gut enzymes of a lepidopteran pest, the gut extract were prepared from Helicoverpa zea (Corn Earworm or “CEW”). Corn Earworm insects were obtained commercially from Benzon Research (Carlisle, PA) as eggs. Hatched larvae were raised on artificial diet until ⅘^th instar (20 mm long) before guts were isolated. Before gut extraction, larvae were anesthetized using CO2. The larva was then pinned on the dissection plate at both the head and the tail. Using dissection scissors, the cuticle was nicked. The dissection scissors were then inserted into the nick and the […] along the insect. The cuticle was then carefully pulled back and pinned open to reveal the digestive track. Using DI water, the insect was thoroughly rinsed to remove hemolymph.
After the insect guts were extracted from the larva, they were spun at 15000 rpm for 5 minutes. The resulting supernatant is the “insect gut extract” that was used to determine peptide stability. Av3b mutant peptide was mixed with the gut extract to […] of 2 μg/μL, and incubated at room temperature. At time points between 0-100 hours, 6 μL of a given sample was mixed with 93 μL dH2O followed by the addition of 1 μL of a 2% trifluoracetic acid solution to stop the reaction. The sample was then analyzed by rpHPLC to determine the peptide loss during the gut extract treatment.

Entries after “also recorded” stand apart in the source; their conditions may differ. Ends that are not written are not given here.

Consider “KSCCPCYWGGCPWGQNCYPEGCDGPK (ends and bridges not checked; cysteine pairing not given here) [Av3bM24]”, for which the half-degradation time in data set [1] (Av3b production fermentation beer pH 6.5, room temperature (Example 11, FIG. 37)) is 652 h. For the same sequence, the peptide remaining in data set [1] (fermentation beer pH 6.5, room temperature, 248 hours, HPLC peak area relative to starting amount) was determined as 84%. The “resistance to fermentation beer protease cleavage compared to Av3b” value in data set [1] (spiked into Av3b fermentation beer pH 6.5, room temperature) was “greater resistance to yeast fermentation beer protease cleavage; also recorded: improved resistance to fermentation beer cleavage; also recorded: resist the degradation in Av3b fermentation beer”. Besides, in the data set with Helicoverpa zea (CEW and FAW injection, KD50), the “knock-down effects compared to Av3b” value is recorded as “comparable knock-down effects to Av3b”. For the same sequence, the “KD50 CEW” value with Helicoverpa zea (third instar larva, 2 μL injection, scored at 24-hours post-injection) was 428 ± 131 (N = 4) pmol/g. The “KD50 FAW” value with Spodoptera frugiperda was 949 pmol/g. Further, in data set [2], the “CD Melting temperature” value was 80 °C. For the same sequence, the “peptide change on day 14” value in data set [3] (pH 4.0, 54° C., HPLC peak area, + mass increase, − mass loss) was −29.5%. Moreover, the “thermo-stability at 54° C.” value in data set [3] (pH 4.0 solution, up to 14 days) was “not thermo-stable”. The “resistance to degradation in gut extract” value in data set [4] is reported as “most resistant to degradation”.
